For assay [1], the target named is T1, TDP-43 N-terminal domain (TDP-43^NTD), residues 1-80, no tags, Q13148.
T1 chain: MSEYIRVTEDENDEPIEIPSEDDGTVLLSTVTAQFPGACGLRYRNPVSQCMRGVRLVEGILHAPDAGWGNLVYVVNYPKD
Briefly: SEC. To be noted: remark: other sources report otherwise.

Assay [2] addresses T1, TDP-43 N-terminal domain (TDP-43^NTD), …. Nature of the assay: AUC. To be noted: remark: other sources report otherwise.

Here are results for 1 molecule from article doi:10.1101/134072.

“And” between values parts separate entries of the source, which are not always exact repeats. Equal values may be shown once.

B1: TDP-43 N-terminal domain (TDP-43^NTD), residues 1-80, no tags, Q13148 1-80 (domain or fragment)
chain: T1 chain
What is called stoichiometry N is a count of units in the complex or per binding partner. As for B1, the stoichiometry N in assay [1] is 2 and 4. In addition, in assay [2], the percent dimer at 2-5 μM turned out to be 30%; the percent tetramer at 20 μM turned out to be 10%; the stoichiometry N is 2 and 4.
